From patent publication US20240101646A1 (VANDERBILT UNIVERSITY, published 2024) come the findings set out here.

The assay deals with T1, SARS-CoV-2 NTD (SARS-CoV-2, UniProt P0DTC2 14-305).
T1 construct: domain: NTD
Briefly: ELISA, antigen plated at 2 µg/mL (FIG. 12A). (An ELISA detects its analyte on a solid surface through an enzyme-linked reagent.)

B1: antibody 5317-10 (antibody, V domains shown)
VH: EVQLVQSGAEVKKPGESLTISCKASGYRFTSNWITWVRQMPGKGLEWMGRIDPDDPYSNSSPSFQGHATLSLDKAINTAYLHWSSLKASDTAMYYCARVNRVGDGPDFWGQGTLVTVSS
VL: DIVMTQSPLSLPVTPGEPASISCRSSQSLLFGNGYTYLNWYLQKPGQSPQLLIYLGSNRASGVPDRFSVSGSGTDFTLIISRVEAEDVGVYFCMQALQTPWTFGQGTKVEIK
As to B1, the binding result was “no binding”.
